Biological target: T1, Strep-tag-Chs2-V377I-215-629 (S. cerevisiae, UniProt P14180 215-629, V377I)
T1 construct: Chs2 (chitin synthase II), S. cerevisiae, residues 215-629 with the hypermorphic change V377I; also called Strep-tag-Chs2-215-629-V377I; source: E. coli Rosetta, in cell extract
T1 sequence (looked up): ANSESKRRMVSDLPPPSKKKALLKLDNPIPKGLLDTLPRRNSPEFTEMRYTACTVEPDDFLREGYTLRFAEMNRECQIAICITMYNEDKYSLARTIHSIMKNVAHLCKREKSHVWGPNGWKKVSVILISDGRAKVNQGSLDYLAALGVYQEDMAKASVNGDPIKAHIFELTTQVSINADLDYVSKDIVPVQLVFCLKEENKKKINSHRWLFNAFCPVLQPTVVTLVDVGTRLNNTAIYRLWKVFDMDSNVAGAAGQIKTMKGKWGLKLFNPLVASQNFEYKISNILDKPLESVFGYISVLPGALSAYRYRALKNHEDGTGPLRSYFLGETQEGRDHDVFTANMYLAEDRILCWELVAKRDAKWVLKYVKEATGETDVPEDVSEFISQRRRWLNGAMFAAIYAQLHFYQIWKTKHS
Assay: pull-down; pairs of E. coli cultures mixed, one cell extract; Strep-tagged protein isolated on Strep-Tactin Superflow resin, eluted with 2.5 mM d-desthiobiotin; immunoblot with anti-Strep and anti-His
Conditions: partners not purified

B1: 6His-tagged-Inn1 (natural protein, S. cerevisiae, UniProt P53901 1-409, looked up)
chain: MSEEVWNGNQGILSVYVSKARDLPNLNKLDKQNVMLRLRIAHMTRASNTLHRAGQNPVFHYLEKFDITPEIKPLMYVEVYCDRRKKSPLPIGRCEIDLLNAIRADPKEGYCTWYELKRSGDEFAGTIFIELTFTPKVPRLNRDDLNKEMDRLDSSMAMRPIPPLPTESEYDYVHGSTMRQITPQCVSTSHEDKDEGQPYRNGNVFSMSSKSDTAVLANSNDPIILPPTFSASMGTTSTLETNDTAISNTSNTKFHFANLRKLKEKINIFKNPDSSTNNCQNESNKVDIEALQKAIGVTSLSYDEDDDDDDENDAFYSSSHRVSHNYNQPPLPPIPTRDDMSNYSSSRNTPLVRRDRPSRLDSSSPNSHPHPSGLNSPKLPPLPTTSNSNFNSRKNSMSPTRKRPPPRLS
notes: Inn1, S. cerevisiae; also called 6His-Inn1; source: E. coli Rosetta, in cell extract
**Q.** B1 was tested. Which “amount of Inn1 co-purified, fold over that with Strep-tag-Chs2-215-629” value did it give?
**A.** Its value is about 3 fold.
